How the values were obtained:
[1] = molecular target: T1, recombinant STIM1 EF/SAM peptide (STIM1 aa 58 to 201) (human, UniProt Q13586 58-201); assay: Octet (BLI), 1 to 1 fitting model, EF-SAM peptide at 200, 133.5 and 88.9 nM
T1 construct: also called STIM1 EF/Hand peptide; soluble recombinant protein corresponding to the STIM1 EF-Hand domain
Method: (§1) FIG. 10 represents the determination of the anti-STIM1 mAb clone B-Y12 affinity. […] High affinity interaction is characterized by a low K, a fast recognizing (high kon) and a stable formation of complexes (low kdis). kdis: dissociation rate constant. kon: complex formation rate.
(§2) Affinity constants (Kon, Kdis) were calculated.

[2] = molecular target: T2, STIM1 peptide 1A (STIM1 amino acids 128 to 168) (human, biotinylated in the ELISA of FIG. 3A (position not given)); assay: ELISA, Peptide 1A (aa 128-168) coated at 1 µg/mL, B-Y12 titrated
T2 construct: Immunization peptide from the SAM domain of STIM1
T2 sequence (peptide, as listed by the source): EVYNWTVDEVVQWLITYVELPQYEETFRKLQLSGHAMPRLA
Method: (§3) FIG. 3 illustrated the validation by Elisa of the monoclonal anti-STIM1 antibody clone B-Y12. […] Anti-STIM1 mAb clone B-Y12 mAb (10 μg/ml) was diluted to 1/10 and antigens STIM1 biotinylated peptides used at concentrations of 50 ng/well for peptides 1A and 1B and 100 ng/well for peptide 2A and 10 ng/well for peptide 2B). Panel B: Specificity of the B-Y12 antibody for STIM1 is confirmed by ELISA using the peptide 1A and a recombinant STIM1 EF/SAM peptide (1 μg/mL). B-Y12 mAb used at 100 μg/mL diluted to 1/10. Panel C: Specificity for the B-Y12 antibody for the peptide 1A over the other peptides (1A, 1B, 2A, 2B, C2, C3, C4, C5, C6, C7 and C8. Peptides are used at a concentration of 1 μg/mL. Histograms represents mean optical density (OD) measured using an Elisa approach.

[3] = molecular target: T1, recombinant STIM1 EF/SAM peptide (STIM1 …); assay: Octet, 1 to 1 fitting model, EF-SAM peptide at 200 nM [table row 200]
Method: as §1, §2

peptide 1B = molecular target: T3, peptide 1B (biotinylated in the ELISA of Figure 3 panel A); assay: ELISA, biotinylated peptide 1B at 50 ng/well, B-Y12 in 1/10 steps
T3 construct: also called STIM1 aa 169 to 197
T3 sequence (peptide, as listed by the source): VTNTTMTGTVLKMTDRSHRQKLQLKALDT
Method: as §3

peptide 2B = molecular target: T4, peptide 2B (biotinylated in the ELISA of Figure 3 panel A); assay: ELISA, biotinylated peptide 2B at 10 ng/well, B-Y12 in 1/10 steps
T4 construct: also called STIM1 aa 97 to 127
T4 sequence (peptide, as listed by the source): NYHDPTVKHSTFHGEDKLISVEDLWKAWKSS
Method: as §3

peptide 2A = molecular target: T5, peptide 2A (biotinylated in the ELISA of Figure 3 panel A); assay: ELISA, biotinylated peptide 2A at 100 ng/well, B-Y12 in 1/10 steps
T5 construct: also called STIM1 aa 62 to 95
T5 sequence (peptide, as listed by the source): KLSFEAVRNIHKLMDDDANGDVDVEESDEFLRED
Method: as §3

[4] = molecular target: T1, recombinant STIM1 EF/SAM peptide (STIM1 …); assay: Octet, 1 to 1 fitting model, EF-SAM peptide at 88,8 nM [table row 88,8]
Method: as §1, §2

[5] = molecular target: T1, recombinant STIM1 EF/SAM peptide (STIM1 …); assay: Octet, 1 to 1 fitting model, EF-SAM peptide at 133,5 nM [table row 133,5]
Method: as §1, §2

[6] = molecular target: T1, recombinant STIM1 EF/SAM peptide (STIM1 …); assay: Octet, 1 to 1 fitting model, EF-SAM peptide at 200 nM; column kdis(1/S) [table row 200]
Method: as §1, §2

[7] = molecular target: T1, recombinant STIM1 EF/SAM peptide (STIM1 …); assay: Octet, 1 to 1 fitting model, EF-SAM peptide at 88,8 nM; column kdis(1/S) [table row 88,8]
Method: as §1, §2

[8] = molecular target: T1, recombinant STIM1 EF/SAM peptide (STIM1 …); assay: Octet, 1 to 1 fitting model, EF-SAM peptide at 133,5 nM; column kdis(1/S) [table row 133,5]
Method: as §1, §2

[9] = molecular target: T6, STIM1 protein, mouse (plasma membrane STIM1 on spleen B and T cells of MRL/Lpr and C57Bl/6 mice) (mouse, UniProt P70302 23-685); assay: direct flow cytometry with PE coupled B-Y12, spleen B cells of MRL/Lpr mice (n=4) [B cells]
T6 construct: whole, on cells; also called mSTIM1 (mouse)
T6 sequence (P70302 23-685): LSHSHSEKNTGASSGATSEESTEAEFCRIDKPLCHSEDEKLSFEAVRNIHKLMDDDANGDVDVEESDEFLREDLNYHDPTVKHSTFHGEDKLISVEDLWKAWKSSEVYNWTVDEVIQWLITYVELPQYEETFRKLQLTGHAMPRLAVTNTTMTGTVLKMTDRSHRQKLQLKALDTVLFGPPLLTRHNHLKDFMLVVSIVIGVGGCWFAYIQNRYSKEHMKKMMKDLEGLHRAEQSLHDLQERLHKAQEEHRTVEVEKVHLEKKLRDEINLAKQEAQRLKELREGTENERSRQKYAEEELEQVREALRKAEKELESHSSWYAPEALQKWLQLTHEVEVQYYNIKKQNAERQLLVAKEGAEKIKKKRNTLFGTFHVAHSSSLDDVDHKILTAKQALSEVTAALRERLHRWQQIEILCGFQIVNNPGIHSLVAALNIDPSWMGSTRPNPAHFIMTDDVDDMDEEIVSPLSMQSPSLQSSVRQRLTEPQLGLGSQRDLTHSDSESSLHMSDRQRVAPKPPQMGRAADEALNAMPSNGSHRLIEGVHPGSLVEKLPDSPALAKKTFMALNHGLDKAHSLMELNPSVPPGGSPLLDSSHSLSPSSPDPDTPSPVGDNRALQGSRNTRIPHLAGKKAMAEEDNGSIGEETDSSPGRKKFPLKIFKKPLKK

T1 sequence (Q13586 58-201): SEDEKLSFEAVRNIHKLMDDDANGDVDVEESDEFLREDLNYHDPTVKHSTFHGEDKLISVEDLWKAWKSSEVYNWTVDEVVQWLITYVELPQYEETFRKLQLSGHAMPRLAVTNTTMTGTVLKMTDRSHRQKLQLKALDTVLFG

Kd [1]: 15 nM
EC50 (read off the curve) [2]: ~4 ng/mL
kon [3]: 20000 M⁻¹ s⁻¹
binding result (peptide 1B): no binding
binding result (peptide 2B): no binding
binding result (peptide 2A): no binding
kon [4]: 18800 M⁻¹ s⁻¹
kon [5]: 23700 M⁻¹ s⁻¹
koff [6]: 0.0004 s⁻¹
koff [7]: 0.000354 s⁻¹
koff [8]: 0.000322 s⁻¹
binding result [9]: binds
B1: monoclonal anti-STIM1 antibody clone B-Y12 (antibody, IgG2b, V domains shown)
VH: QVQLQQPGAELVKPGASVKLSCKASGYTFTSYWMHWVKLRPGQGFEWIGETNPRNGGTNYNEKFKRKATLTVDKSSSTAYMQLSSLTSEDSAVYYCTITKTVRATWYFDYWGQGTTLTVSS
VL: DVLMTQTPLSLPVSLGDQASISCRSSQSIVHSNGNTYLEWYLQKPGQSPKLLIYKVSNRFSGVPDRFSGSGSGTDFTLKISRVEAEDLGVYYCFQGSHVPYTFGGGTKLEIK
notes: In direct flow cytometry it was used coupled to phycoerythrin (PE); also called B-Y12 mAb; anti-STIM1 mAb clone B-Y12

— patent US20230055411A1 (UNIVERSIT DE BRETAGNE OCCIDENTALE UBO, published 2023)
